Data published in publication PMC3041725.

Experiments:
[1] = molecular target: VN-Exd fusion protein, expressed in Drosophila embryos (Drosophila melanogaster) (UniProt P40427); experiment: split reporter (BiFC, NanoBiT); competition against split Venus BiFC in living Drosophila embryos: an unfused ('cold') protein co-expressed with the two fusion proteins
[2] = molecular target: VC-Exd fusion protein, expressed in Drosophila embryos (Drosophila melanogaster) (UniProt P40427); experiment: split reporter (BiFC, NanoBiT); split Venus (VN 1-173, VC 155-238) BiFC in living Drosophila embryos; fusion proteins expressed by UAS/Gal4 (abdA-Gal4, en-Gal4, btl-Gal4 and others); embryos kept at 4°C for 28 h before confocal imaging
Sequence of VC-Exd fusion protein, expressed in Drosophila embryos (Drosophila melanogaster) (P40427 whole entry, the tested form may be a part): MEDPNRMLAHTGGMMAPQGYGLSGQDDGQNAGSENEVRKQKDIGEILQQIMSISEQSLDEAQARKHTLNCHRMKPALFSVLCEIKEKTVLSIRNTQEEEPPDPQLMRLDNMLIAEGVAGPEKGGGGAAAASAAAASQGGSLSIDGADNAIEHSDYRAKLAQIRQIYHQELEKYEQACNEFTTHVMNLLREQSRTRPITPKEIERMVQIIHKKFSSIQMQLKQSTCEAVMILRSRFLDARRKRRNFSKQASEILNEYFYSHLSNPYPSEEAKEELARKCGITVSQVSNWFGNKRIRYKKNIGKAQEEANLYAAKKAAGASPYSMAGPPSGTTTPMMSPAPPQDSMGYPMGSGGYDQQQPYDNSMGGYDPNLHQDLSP

Sequence of VN-Exd fusion protein, expressed in Drosophila embryos (Drosophila melanogaster) (P40427 whole entry, the tested form may be a part): as above
Sequence of AbdominalA (AbdA), unfused parental wild type protein, expressed in Drosophila embryos, P29555 1-590 (natural protein; other documents disagree on this pair) (P29555 whole entry, the tested form may be a part): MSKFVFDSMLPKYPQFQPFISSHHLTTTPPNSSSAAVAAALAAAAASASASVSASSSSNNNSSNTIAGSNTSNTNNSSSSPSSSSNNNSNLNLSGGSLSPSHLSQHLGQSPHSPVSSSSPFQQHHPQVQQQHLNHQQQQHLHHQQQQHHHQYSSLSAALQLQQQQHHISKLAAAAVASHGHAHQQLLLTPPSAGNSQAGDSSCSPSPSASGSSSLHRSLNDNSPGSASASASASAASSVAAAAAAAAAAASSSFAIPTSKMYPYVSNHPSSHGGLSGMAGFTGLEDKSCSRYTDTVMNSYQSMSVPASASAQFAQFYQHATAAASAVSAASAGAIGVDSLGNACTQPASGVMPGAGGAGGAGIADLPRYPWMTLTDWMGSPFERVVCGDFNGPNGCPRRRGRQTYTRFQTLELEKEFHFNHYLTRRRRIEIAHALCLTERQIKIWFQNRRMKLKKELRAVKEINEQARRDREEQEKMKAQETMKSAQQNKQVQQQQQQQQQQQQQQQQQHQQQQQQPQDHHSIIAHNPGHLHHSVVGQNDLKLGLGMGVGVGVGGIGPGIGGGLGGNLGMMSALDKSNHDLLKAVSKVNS
Sequence of VN-AbdA fusion protein, expressed in Drosophila embryos, P29555 1-590 (natural protein; other documents disagree on this pair) (P29555 whole entry, the tested form may be a part): as above

Row | percent loss of BiFC between VC-AbdA and VN-Exd [1] | fold weaker BiFC signal than VC-AbdA/VN-Exd [2] | Substance
1 | 80% | – | AbdominalA (AbdA), unfused parental wild type protein, expressed in Drosophila embryos, P29555 1-590 (natural protein; other documents disagree on this pair)
2 | – | 5 fold | VN-AbdA fusion protein, expressed in Drosophila embryos, P29555 1-590 (natural protein; other documents disagree on this pair)
